Reference: the supplement of paper PMC10065799, “High-throughput profiling of sequence recognition by tyrosine kinases and SH2 domains using bacterial peptide display” (eLife, 2023)

Legend:
Fyn = Fyn (UniProt P06241); assay: phosphorylation enrichment, bacterial display (enrichment ratio); higher = better substrate or ligand; peptides without Tyr show the background
c-Src = assay: as above
AncSZ = assay: as above
Fer (mouse) = assay: as above
EPHB2 = EPHB2 (UniProt P29323); assay: as above
Hck = Hck (UniProt P08631); assay: as above
Chain of Hck (P08631 whole entry, looked up): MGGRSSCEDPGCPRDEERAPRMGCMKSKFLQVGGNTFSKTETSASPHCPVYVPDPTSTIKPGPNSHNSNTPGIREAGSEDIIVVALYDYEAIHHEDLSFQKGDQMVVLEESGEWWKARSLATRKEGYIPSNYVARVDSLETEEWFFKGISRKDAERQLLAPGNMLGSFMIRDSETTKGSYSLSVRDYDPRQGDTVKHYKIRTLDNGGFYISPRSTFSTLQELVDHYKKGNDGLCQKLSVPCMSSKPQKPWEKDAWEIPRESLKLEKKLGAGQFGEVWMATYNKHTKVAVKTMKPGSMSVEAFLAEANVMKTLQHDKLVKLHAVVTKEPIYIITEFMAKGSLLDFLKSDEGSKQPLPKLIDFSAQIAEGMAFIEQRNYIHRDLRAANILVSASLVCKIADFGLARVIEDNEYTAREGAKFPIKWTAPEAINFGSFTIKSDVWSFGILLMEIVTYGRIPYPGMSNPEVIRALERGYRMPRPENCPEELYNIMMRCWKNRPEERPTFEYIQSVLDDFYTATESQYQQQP

FGFR3 = FGFR3 (UniProt P22607); assay: as above
MERTK = MERTK (UniProt Q12866); assay: as above
Fes = Fes (UniProt P07332); assay: as above
Chain of Fes (P07332 whole entry, looked up): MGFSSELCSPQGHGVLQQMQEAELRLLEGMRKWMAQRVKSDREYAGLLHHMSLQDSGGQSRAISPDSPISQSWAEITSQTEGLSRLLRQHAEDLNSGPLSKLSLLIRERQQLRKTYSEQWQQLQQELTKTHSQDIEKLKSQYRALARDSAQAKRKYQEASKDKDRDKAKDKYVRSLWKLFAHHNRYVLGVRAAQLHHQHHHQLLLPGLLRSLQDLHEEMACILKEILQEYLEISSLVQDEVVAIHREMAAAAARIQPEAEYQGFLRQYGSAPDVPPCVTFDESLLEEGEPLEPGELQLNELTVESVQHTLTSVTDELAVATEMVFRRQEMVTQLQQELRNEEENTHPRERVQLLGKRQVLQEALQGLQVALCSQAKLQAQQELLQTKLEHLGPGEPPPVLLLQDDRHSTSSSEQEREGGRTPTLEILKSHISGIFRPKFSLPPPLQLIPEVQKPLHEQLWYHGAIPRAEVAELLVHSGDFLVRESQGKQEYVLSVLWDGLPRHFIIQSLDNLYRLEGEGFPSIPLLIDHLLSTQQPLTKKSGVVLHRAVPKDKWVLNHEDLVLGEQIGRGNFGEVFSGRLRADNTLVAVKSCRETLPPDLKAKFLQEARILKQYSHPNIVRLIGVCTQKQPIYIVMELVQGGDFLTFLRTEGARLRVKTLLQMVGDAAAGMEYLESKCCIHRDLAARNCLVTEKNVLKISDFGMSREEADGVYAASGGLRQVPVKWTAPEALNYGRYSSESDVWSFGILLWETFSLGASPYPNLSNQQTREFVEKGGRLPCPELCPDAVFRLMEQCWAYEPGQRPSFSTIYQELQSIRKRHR

Jak2 = Jak2 (UniProt O60674); assay: as above
Chain of Jak2 (O60674 whole entry, looked up): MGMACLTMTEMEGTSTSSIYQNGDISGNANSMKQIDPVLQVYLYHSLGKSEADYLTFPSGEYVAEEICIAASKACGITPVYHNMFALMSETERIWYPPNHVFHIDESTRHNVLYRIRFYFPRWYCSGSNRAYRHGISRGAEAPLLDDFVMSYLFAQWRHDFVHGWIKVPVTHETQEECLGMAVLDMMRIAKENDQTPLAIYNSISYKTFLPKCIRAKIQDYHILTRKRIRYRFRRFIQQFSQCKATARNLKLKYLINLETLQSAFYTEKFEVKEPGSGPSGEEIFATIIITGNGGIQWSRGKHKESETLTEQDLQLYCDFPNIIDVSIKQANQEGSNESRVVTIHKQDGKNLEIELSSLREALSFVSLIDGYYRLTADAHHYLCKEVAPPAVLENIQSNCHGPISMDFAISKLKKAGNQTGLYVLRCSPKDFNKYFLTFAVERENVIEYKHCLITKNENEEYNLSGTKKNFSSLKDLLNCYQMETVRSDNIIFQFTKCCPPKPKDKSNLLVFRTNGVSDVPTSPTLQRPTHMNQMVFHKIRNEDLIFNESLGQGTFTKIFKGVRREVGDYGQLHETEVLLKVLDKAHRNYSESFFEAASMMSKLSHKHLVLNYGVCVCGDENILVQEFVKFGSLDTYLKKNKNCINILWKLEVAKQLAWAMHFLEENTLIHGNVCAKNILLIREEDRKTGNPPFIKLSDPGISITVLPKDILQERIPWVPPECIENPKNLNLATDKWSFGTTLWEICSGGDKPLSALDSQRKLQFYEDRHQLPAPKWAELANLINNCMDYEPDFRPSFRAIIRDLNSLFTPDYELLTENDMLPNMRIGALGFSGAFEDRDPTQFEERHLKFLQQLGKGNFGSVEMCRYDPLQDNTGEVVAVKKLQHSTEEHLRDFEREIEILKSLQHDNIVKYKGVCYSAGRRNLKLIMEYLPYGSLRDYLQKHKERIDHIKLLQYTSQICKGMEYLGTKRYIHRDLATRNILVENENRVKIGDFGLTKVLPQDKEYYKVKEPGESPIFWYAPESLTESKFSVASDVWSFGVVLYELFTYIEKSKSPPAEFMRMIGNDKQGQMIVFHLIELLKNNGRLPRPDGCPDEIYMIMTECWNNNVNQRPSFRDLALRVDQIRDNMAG

EPHB1 = EPHB1 (UniProt P54762); assay: as above
Chain of EPHB1 (P54762 whole entry, looked up): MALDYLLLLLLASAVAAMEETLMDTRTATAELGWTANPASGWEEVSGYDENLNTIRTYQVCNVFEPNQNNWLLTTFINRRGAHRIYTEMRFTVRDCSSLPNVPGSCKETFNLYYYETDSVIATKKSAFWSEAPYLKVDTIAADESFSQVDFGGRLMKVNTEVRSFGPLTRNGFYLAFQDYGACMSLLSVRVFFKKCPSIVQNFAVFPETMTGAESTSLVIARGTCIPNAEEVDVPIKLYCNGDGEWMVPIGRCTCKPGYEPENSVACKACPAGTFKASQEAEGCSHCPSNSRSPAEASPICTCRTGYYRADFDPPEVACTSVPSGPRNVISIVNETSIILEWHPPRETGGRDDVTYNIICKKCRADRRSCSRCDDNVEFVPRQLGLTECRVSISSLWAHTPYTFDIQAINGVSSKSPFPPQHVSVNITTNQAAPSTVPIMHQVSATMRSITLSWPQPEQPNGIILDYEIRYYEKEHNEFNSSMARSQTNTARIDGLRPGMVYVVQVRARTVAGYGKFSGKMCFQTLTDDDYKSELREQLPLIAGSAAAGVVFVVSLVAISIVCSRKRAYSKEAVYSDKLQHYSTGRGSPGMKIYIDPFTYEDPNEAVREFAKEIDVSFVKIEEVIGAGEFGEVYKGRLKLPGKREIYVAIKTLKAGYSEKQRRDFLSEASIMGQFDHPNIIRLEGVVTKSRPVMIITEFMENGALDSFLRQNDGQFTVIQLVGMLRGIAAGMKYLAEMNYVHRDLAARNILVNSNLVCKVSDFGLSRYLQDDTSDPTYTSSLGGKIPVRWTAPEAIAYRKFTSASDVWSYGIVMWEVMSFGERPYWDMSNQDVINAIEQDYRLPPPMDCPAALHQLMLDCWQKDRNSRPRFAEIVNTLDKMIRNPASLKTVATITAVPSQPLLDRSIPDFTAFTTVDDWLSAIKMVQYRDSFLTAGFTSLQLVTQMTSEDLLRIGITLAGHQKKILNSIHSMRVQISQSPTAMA

c-Abl (mouse) = assay: as above
FGFR1 = FGFR1 (UniProt P11362); assay: as above
SHP2-C SH2 = assay: SH2 binding enrichment of the phosphorylated peptide, bacterial display (enrichment ratio); higher = better substrate or ligand; peptides without Tyr show the background
Grb2 SH2 = Grb2 SH2 (UniProt P62993); assay: as above
c-Src SH2 = assay: as above
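For SH2 binding enrichment of the phosphorylated peptide, bacterial display in this document: peptide library displayed on the E. coli surface as eCPX fusions, selected cells deep-sequenced, score is each peptide's frequency after selection divided by its frequency in the input.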
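For phosphorylation enrichment, bacterial display in this document: 11-residue human phosphosite peptides and single-mutation variants displayed on the E. coli surface, counted by deep sequencing, each peptide's frequency after selection divided by its frequency in the unselected input library; frequency after pTyr selection over input frequency; kinase dosed for 20-30% of maximal phosphorylation in three min.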

Chain of EPHB2 (P29323 whole entry, looked up): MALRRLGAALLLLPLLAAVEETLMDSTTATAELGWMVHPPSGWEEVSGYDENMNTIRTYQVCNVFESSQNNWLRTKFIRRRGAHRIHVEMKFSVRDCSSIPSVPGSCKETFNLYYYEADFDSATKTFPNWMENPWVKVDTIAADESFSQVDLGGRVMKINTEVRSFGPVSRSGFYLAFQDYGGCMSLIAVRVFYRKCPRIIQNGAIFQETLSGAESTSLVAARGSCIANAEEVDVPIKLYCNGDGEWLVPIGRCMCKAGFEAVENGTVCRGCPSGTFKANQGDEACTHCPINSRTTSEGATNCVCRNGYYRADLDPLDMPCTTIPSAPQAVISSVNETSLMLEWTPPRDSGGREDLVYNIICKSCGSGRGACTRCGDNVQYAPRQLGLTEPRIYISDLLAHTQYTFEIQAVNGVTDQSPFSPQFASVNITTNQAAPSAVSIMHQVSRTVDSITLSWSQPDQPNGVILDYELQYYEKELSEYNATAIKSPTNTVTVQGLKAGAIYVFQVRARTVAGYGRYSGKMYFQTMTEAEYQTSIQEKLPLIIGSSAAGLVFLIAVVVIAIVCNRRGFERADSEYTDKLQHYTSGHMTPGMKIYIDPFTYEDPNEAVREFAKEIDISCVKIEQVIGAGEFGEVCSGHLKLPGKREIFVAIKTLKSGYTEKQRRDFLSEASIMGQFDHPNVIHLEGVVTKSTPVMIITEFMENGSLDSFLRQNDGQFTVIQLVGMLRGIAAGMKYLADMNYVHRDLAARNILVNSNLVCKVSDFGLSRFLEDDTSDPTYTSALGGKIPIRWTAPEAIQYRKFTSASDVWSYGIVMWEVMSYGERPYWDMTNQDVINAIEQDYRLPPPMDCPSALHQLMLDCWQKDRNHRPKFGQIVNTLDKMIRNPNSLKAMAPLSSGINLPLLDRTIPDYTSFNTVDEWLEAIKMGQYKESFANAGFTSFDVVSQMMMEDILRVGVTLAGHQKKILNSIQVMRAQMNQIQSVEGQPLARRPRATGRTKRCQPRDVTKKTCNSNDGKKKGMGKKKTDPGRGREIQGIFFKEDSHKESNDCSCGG
Chain of Fyn (P06241 whole entry, looked up): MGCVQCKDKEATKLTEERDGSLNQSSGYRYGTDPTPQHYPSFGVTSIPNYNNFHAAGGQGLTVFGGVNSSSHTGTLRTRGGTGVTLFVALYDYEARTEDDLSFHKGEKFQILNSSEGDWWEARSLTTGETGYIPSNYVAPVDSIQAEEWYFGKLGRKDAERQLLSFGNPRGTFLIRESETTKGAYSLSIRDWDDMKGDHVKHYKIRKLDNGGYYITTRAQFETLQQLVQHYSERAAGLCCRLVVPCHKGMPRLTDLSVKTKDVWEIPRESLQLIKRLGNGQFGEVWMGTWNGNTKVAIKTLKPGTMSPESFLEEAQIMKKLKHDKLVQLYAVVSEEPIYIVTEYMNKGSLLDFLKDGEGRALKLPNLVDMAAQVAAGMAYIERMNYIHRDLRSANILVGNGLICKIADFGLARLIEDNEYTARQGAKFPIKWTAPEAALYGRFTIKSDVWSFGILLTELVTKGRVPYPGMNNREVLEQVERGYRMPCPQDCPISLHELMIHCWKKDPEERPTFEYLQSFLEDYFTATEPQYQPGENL

SH2 binding enrichment (SHP2-C SH2)	SH2 binding enrichment (Grb2 SH2)	SH2 binding enrichment (c-Src SH2)	Sequence	phosphorylation enrichment (Fyn)	phosphorylation enrichment (c-Src)	phosphorylation enrichment (AncSZ)	phosphorylation enrichment (Fer (mouse))	phosphorylation enrichment (EPHB2)	phosphorylation enrichment (Hck)	phosphorylation enrichment (FGFR3)	phosphorylation enrichment (MERTK)	phosphorylation enrichment (Fes)	phosphorylation enrichment (Jak2)	phosphorylation enrichment (EPHB1)	phosphorylation enrichment (c-Abl (mouse))	phosphorylation enrichment (FGFR1)
2.14	1.21	1.67	LAGRYYALKSM [CKB_Y174]	0.668	0.67	1.24	0.545	0.417	0.783	0.957	3.22	0.852	1.29	0.541	0.594	1.45
0.67	0.976	0.458	LAIELYVVVCK [RHO_Y136_R135L]	1.14	1.11	2.14	1.17	2.06	0.861	1.64	0.597	3.23	2.07	2.12	2.59	1.4
0.888	0.599	0.611	LANNEYFFQVC	1.4	1.35	3.75	0.939	0.804	0.932	9.36	0.933	2.72	2.29	1.55	1.74	12.8
0.668	0.884	0.423	LARDMHDKEFF [MET_Y1230_Y1230H_YF]	0.821	0.671	1.08	0.362	0.757	0.812	0.661	0.907	0.864	1.15	0.723	0.91	0.625
0.673	0.843	0.71	LARNMYDKEYY [MET_Y1230_D1228N]	0.441	0.611	1.13	0.468	0.546	0.605	0.569	0.358	0.872	0.84	0.482	0.565	0.631
0.667	1.57	0.625	LDFPEYDGVDR [CASQ1_Y43]	0.75	1.5	2.6	0.719	0.865	1.11	1.37	0.556	2.01	2	0.633	1.48	0.59
0.812	0.865	0.445	LDYNEYFRGLN [HPRT1_Y198_D201G]	1.6	0.892	2.67	1.06	1.37	2.6	1.85	0.733	1.95	3.42	1.28	0.847	2.77
0.927	0.696	0.711	LFMGDYVDRGY [PPP2CA_Y86]	0.699	0.8	1.6	0.612	0.977	1.01	1.02	0.701	1.47	1.41	0.983	0.982	1.46
0.835	0.828	0.663	LFPANYVAPMT [GRAP2_Y324]	0.446	0.397	0.827	0.418	1.31	0.551	0.617	0.551	0.91	0.649	3.55	0.713	0.535
0.762	0.83	1.1	LGGAMYYLEAD [PKHD1_Y452_E457D]	1.7	1.86	1.39	0.664	0.672	1.08	1.6	1.62	1.48	1.19	0.839	0.956	1.36
0.599	0.878	0.51	LGPSDYFGEIA [PRKAR1A_Y323]	0.705	0.68	1.76	0.579	0.727	0.602	1.12	0.605	1.14	1.08	0.696	0.746	1.39
0.583	0.788	0.593	LGRKLYSIAAP [ABHD12_Y345]	0.737	0.647	1.3	0.952	1.04	0.73	1.12	1.04	1.13	2.38	0.664	0.892	0.543
0.621	1.11	0.616	LGRKLYSIATP [ABHD12_Y345_A349T]	0.413	0.698	0.773	0.698	0.471	0.672	0.635	1.29	1.18	1.3	0.576	1.07	0.612
0.804	0.695	0.487	LGSNTYPFLLT [SAG_Y120]	0.505	0.543	1.26	0.793	0.655	0.54	1.4	0.589	1.22	0.785	0.77	0.938	1.11
0.548	1.92	0.786	LINPKYSVEEE [PCDH19_Y27_L25P]	0.797	0.608	1.8	0.977	0.986	0.55	1.36	0.836	2.28	1.65	1.06	1.39	0.753
0.582	1.01	0.595	LKGQVDILGRE [ASS1_Y359_Y359D]	0.559	0.764	0.803	0.598	0.696	0.575	0.638	0.663	1.07	1.26	0.539	0.658	0.578
0.694	0.764	0.429	LKTNCYNNGKD [DNMT3B_Y404]	0.649	0.572	1.12	0.68	0.818	0.879	1.12	0.601	1.21	1.24	1.09	3.04	0.685

Continued, sequence first:

Sequence	SH2 binding enrichment (SHP2-C SH2)	SH2 binding enrichment (Grb2 SH2)	SH2 binding enrichment (c-Src SH2)	phosphorylation enrichment (Fyn)	phosphorylation enrichment (c-Src)	phosphorylation enrichment (AncSZ)	phosphorylation enrichment (Fer (mouse))	phosphorylation enrichment (EPHB2)	phosphorylation enrichment (Hck)	phosphorylation enrichment (FGFR3)	phosphorylation enrichment (MERTK)	phosphorylation enrichment (Fes)	phosphorylation enrichment (Jak2)	phosphorylation enrichment (EPHB1)	phosphorylation enrichment (c-Abl (mouse))	phosphorylation enrichment (FGFR1)
LAVNPYGPPDP	0.7	0.934	0.528	0.454	0.523	0.796	0.44	0.553	0.516	0.493	0.594	0.692	0.709	0.461	0.726	0.436
LDLSYYHTSSS [EMD_Y182_P183H]	1.36	1.26	1.19	0.509	0.676	0.929	0.451	0.614	0.452	1.22	0.634	0.977	1.51	0.516	0.672	1.11
LENSTYQYIHV [CRB1_Y760_R764H]	1.06	1.05	1.45	3.32	3.15	2.84	17.8	5.17	7.21	5.6	7.77	1.68	1.18	11.2	1.01	9.48
LEQRPYRRGSE [KCNJ12_Y427_E430G]	0.733	0.891	0.419	0.424	0.399	0.651	0.447	0.478	0.523	0.511	0.442	0.683	0.576	0.348	0.594	0.365
LFHENYNAGTF [CFI_Y421_I416L_YF]	0.856	0.72	0.539	0.683	0.649	0.928	0.822	1.23	0.596	0.941	0.654	1.11	1.07	0.848	0.597	0.634
LFSGDCFRIQG [DDR2_Y740_Y740C_YF]	0.524	0.844	0.553	0.472	0.459	0.931	0.468	0.602	0.486	0.693	0.425	1.15	0.764	0.554	0.84	0.516
LFSLGYHQSRW [GANAB_Y396]	0.828	1.15	0.717	0.726	0.454	1.04	0.584	0.724	0.855	1.02	0.649	1.16	0.767	0.647	0.638	0.567
LGGAMYFLEAD [PKHD1_Y452_E457D_YF]	0.698	0.768	0.667	0.717	0.772	1.01	0.517	0.701	0.581	0.77	0.536	1.09	1.03	0.535	0.682	0.461
LGLDECLDKLK [FMNL2_Y352_Y352C]	0.492	0.934	0.75	1.04	0.92	1.91	1.31	1.37	1.31	1.54	1.09	1.85	2.01	1.05	1.7	1.28
LKEIHYPPFTD [ALDH3B2_Y362_YF]	0.644	0.922	0.505	0.437	0.401	0.819	0.413	0.541	0.437	0.555	0.329	0.9	0.659	0.425	0.559	0.474
LKEIRYPPFTD [ALDH3B2_Y362_H361R_YF]	0.68	0.798	0.605	0.926	0.919	2.71	1.09	0.731	0.63	1.07	0.725	2.01	2.05	0.883	1.06	1.09
LKMLVYMDMSK [LRRC7_Y234_L235M]	0.742	0.849	0.661	0.807	0.872	1.45	0.842	0.804	0.802	0.984	0.689	2.25	1.85	1.79	1.23	1.02
